Tests used:
[1] = molecular target: T1, human ROR1 protein (GenBank accession No. NP_005003.2) (human, UniProt Q01973 30-937); experiment: flow cytometry on NCI-H358 cells, relative affinity
T1 construct: whole, on cells; also called hROR1; endogenous human ROR1
Procedure: To inspect response of the antibodies obtained as described above to an endogenous human ROR1, response to an ROR1 high expressing cell NCI-H358 (ATCC accession No. CRL-5807) line was observed as below. The antibodies were purified from the culture supernatant of each hybridoma clone by a general affinity purification method using Protein A-Sepharose, respectively. The obtained purified antibodies were analyzed for the average fluorescence intensity of flow cytometry under the same condition (the same number of NCI-H358 (1×10⁵), the same concentration of respective purified antibodies, and the same concentration of secondary (detected) antibodies). Further, data was acquired also for the average fluorescence intensity that depends on the antibody concentration, the detection limit at a low concentration was analyzed, and thereby relative affinity was evaluated. FIG. 2 to FIG. 4 illustrate the results in a form of graphs. The horizontal axis of each graph represents the used antibody concentration (ng/mL), and the vertical axis represents the average fluorescence intensity (MFI) in flow cytometry. FIG. 2A is a diagram illustrating the response of anti-human ROR1 antibodies to ROR1 expressing cells of acquired monoclonal antibodies (2 AM series and 2AC series). […]

[2] = molecular target: T1, human ROR1 protein (GenBank accession …); experiment: flow cytometry, Alexa Fluor 488 labeled antibody at 1 µg/ml on ROR1 high (NCI-H1975, PC-9) and ROR1 low (A427, NCI-H460) expressing cell lines
Source text: To inspect response of antibodies obtained as described above to an endogenous human ROR1, the response to the ROR1 high expressing cell line (NCI-H1975, PC-9) and the ROR1 low expressing cell line (A427, NCI-H460) was observed as follows. Note that NCI-H1975 (ATCC accession No. CRL-5908), A427 (ATCC accession No. HTB-53), and NCI-H460 (ATCC accession No. HTB-177) were purchased from American Type Culture Collection. The PC-9 cell line (RCB 4455) was obtained from RIKEN cell bank. Various cell lines were seeded on 6-well dishes to have 2×10⁵/well, cultured at 37 degrees Celsius for 24 hours, and collected after PBS washing. After chimerized antibodies labeled by using Alexa Fluor (registered trademark) 488 Antibody Labeling Kit (Thermo Fisher Scientific; A20181) were diluted to 1 μg/ml and reacted on ice for one hour, the resultant was washed with a PBS, and the reaction intensity was analyzed by flow cytometry. […] FIG. 6 illustrates graphs indicating the response of chimerized antibodies to the ROR1 high expressing cell line and the ROR1 low expressing cell line.

T1 sequence (Q01973 30-937): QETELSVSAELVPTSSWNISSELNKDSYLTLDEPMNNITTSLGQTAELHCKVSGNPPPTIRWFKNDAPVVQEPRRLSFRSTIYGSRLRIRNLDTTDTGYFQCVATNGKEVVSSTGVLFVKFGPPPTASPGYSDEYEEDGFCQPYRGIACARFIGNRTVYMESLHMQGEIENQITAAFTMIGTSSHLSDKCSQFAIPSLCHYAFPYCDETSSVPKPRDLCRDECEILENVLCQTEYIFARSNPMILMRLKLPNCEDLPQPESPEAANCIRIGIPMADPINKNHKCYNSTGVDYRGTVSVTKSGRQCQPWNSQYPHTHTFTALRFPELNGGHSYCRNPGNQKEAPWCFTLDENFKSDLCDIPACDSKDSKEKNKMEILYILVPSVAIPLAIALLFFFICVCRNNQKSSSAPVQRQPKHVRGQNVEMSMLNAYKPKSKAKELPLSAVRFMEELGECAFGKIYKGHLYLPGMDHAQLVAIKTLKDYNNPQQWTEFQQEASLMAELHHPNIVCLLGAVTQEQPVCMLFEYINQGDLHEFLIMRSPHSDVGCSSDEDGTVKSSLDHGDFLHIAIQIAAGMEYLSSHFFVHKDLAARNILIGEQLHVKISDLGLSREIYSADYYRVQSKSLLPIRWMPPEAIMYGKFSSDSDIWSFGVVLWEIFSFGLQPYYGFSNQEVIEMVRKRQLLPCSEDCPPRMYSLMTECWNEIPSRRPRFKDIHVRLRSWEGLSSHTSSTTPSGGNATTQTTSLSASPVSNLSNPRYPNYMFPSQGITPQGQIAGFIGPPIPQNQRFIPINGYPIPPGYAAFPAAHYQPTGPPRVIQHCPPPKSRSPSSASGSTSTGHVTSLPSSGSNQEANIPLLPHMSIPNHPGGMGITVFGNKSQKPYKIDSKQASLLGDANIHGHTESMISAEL

| Binder | binding result [1] | binding result [2] |
| --- | --- | --- |
| 6AM_120-2 (antibody, mouse IgG1, V domains shown, VH was cloned with a mouse IgG1 CH1 primer and VL with a kappa constant region primer) VH: EIQLQQSGAELVKPGASVKISCKASGYSFTGYNMNWVKQSHGKSLEWIGNINPYYGNTSYNQKFKGKATLTVDKSSSTAYMQLNSLTSEDSAVYYCAREGFEYFDYWGQGTTLTVSS VL: DIQMTQSPASLSASVGETVTITCRASENIYSYLAWYQQKQGKSPQLLVYNVKTLAEGVPSRFSGSGSGTQFSLKINSLQPEDFGSYYCQHHYGIPYTFGSGTKLEIK | binds | – |
| chimeric antibody M3 (antibody, human IgG1, V domains shown, Mouse VH and VL of 6AM_120-2 in a vector carrying the human IgG1 constant region; also called chimerized antibody obtained from clone 6 AM_120-2) VH: EIQLQQSGAELVKPGASVKISCKASGYSFTGYNMNWVKQSHGKSLEWIGNINPYYGNTSYNQKFKGKATLTVDKSSSTAYMQLNSLTSEDSAVYYCAREGFEYFDYWGQGTTLTVSS VL: DIQMTQSPASLSASVGETVTITCRASENIYSYLAWYQQKQGKSPQLLVYNVKTLAEGVPSRFSGSGSGTQFSLKINSLQPEDFGSYYCQHHYGIPYTFGSGTKLEIK | – | binds |

Further lines, results first:

| binding result [1] | binding result [2] | Binder |
| --- | --- | --- |
| binds | – | 2DC_5-2 (antibody, mouse IgG1, V domains shown, VH was cloned with a mouse IgG1 CH1 primer and VL with a kappa constant region primer; also called clone 2DC_5-2) VH: EVKLVESGGGLVKPGGSLKLSCAASGFTFSSYAMSWVRQTPEKRLEWVAAINTKGGSTYYPDTVKDRFTISRDNAKNILYLQMSSLRSEDTALYYCARHEPVYDYAMDYWGQGTSVTVSS VL: DIKMTQSPSSMYASLGERVTITCKASQDINSYLSWFQQKPGKSPKTLIYRANRLVDGVPSRFSGSGSGQDYSLTISSLECGDMGIYYCLQYDEFPYTFGGGTKLEIK |
| – | binds | chimeric antibody M1 (antibody, human IgG1, V domains shown, Mouse VH and VL of 2DC_5-2 in a vector carrying the human IgG1 constant region; also called chimerized antibody obtained from clone 2DC_5-2) VH: EVKLVESGGGLVKPGGSLKLSCAASGFTFSSYAMSWVRQTPEKRLEWVAAINTKGGSTYYPDTVKDRFTISRDNAKNILYLQMSSLRSEDTALYYCARHEPVYDYAMDYWGQGTSVTVSS VL: DIKMTQSPSSMYASLGERVTITCKASQDINSYLSWFQQKPGKSPKTLIYRANRLVDGVPSRFSGSGSGQDYSLTISSLECGDMGIYYCLQYDEFPYTFGGGTKLEIK |

— US20220323598A1 (NATIONAL UNIVERSITY CORPORATION TOKAI NATIONAL HIGHER …, published 2022)
